From the RNAGym collection of RNA variant scans (doi:10.7554/elife.80360) come the findings set out here.

B1: CPEB3 Ribozyme (parent)
chain: GGGGGCCACAGCAGAAGCGUUCACGUCGCGGCCCCUGUCAGAUUCUGGUGAAUCUGCGAAUUCUGCUGU

The data set covers variants of B1. In words: self-cleavage, relative activity (ratio to wild type); higher = more cleavage; co-transcriptional.
As for GGCGGCCACAGCAGAAGAGUUCACGUCGCGGCCCCUGUCAGAUUCUGGUGAAUCUGCGAAUUCUGCUGU [G3C C18A], the self-cleavage came out at 0.058. Then GGCGGCCACAGCAGAAGUGUUCACGUCGCGGCCCCUGUCAGAUUCUGGUGAAUCUGCGAAUUCUGCUGU [G3C C18U], with 0.0442; and GGCGGCCACAGCAGAAGGGUUCACGUCGCGGCCCCUGUCAGAUUCUGGUGAAUCUGCGAAUUCUGCUGU [G3C C18G], with 0.0441. Then GGCGGCCACAGCAGAAGCGUUAACGUCGCGGCCCCUGUCAGAUUCUGGUGAAUCUGCGAAUUCUGCUGU [G3C C22A], with 0.0184; and GGCGGCCACAGCAGAAGCGUUUACGUCGCGGCCCCUGUCAGAUUCUGGUGAAUCUGCGAAUUCUGCUGU [G3C C22U], with 0.0738; and GGCGGCCACAGCAGAAGCGUUGACGUCGCGGCCCCUGUCAGAUUCUGGUGAAUCUGCGAAUUCUGCUGU [G3C C22G], with 0.0359. Then GGCGGCCACAGCAGAAGCGUUCACGUCGCGGACCCUGUCAGAUUCUGGUGAAUCUGCGAAUUCUGCUGU [G3C C32A], with 0.0311.

With GGCGGCCACAGCAGAAGCGUUCACGUCGCGGCUCCUGUCAGAUUCUGGUGAAUCUGCGAAUUCUGCUGU [G3C C33U], the self-cleavage turned out to be 0.0583. As for GGCGGCCACAGCAGAAGCGUUCACGUCGCGGCACCUGUCAGAUUCUGGUGAAUCUGCGAAUUCUGCUGU [G3C C33A], the self-cleavage was determined as 0.0485.

Turning to GGCGGCCACAGCAGAAGCGUUCACGUCGCGGCCCCUGUCAGAUUAUGGUGAAUCUGCGAAUUCUGCUGU [G3C C45A], the self-cleavage stood at 0.0668.

Turning to GGCGGCCACAGCAGAAGCGUUCACGUCGCGGCCCCUGUCAGAUUUUGGUGAAUCUGCGAAUUCUGCUGU [G3C C45U], the self-cleavage was 0.121.

Consider GGCGGCCACAGCAGAAGCGUUCACGUCGCGGCCCUUGUCAGAUUCUGGUGAAUCUGCGAAUUCUGCUGU [G3C C35U], for which the self-cleavage was found to be 0.0352.

Consider GGCGGCCAAAGCAGAAGCGUUCACGUCGCGGCCCCUGUCAGAUUCUGGUGAAUCUGCGAAUUCUGCUGU [G3C C9A], for which the self-cleavage was 0.511.

Turning to GGCGGCCAGAGCAGAAGCGUUCACGUCGCGGCCCCUGUCAGAUUCUGGUGAAUCUGCGAAUUCUGCUGU [G3C C9G], the self-cleavage worked out at 0.166. The result for GGCGGCAACAGCAGAAGCGUUCACGUCGCGGCCCCUGUCAGAUUCUGGUGAAUCUGCGAAUUCUGCUGU [G3C C7A] reads 0.026. The result for GGCGGCGACAGCAGAAGCGUUCACGUCGCGGCCCCUGUCAGAUUCUGGUGAAUCUGCGAAUUCUGCUGU [G3C C7G] reads 0.0644; that for GGCGGCUACAGCAGAAGCGUUCACGUCGCGGCCCCUGUCAGAUUCUGGUGAAUCUGCGAAUUCUGCUGU [G3C C7U], 0.102. The result for GGCGGCCACAGCAGAAGCGUUCACGUCGCGGCCCCUGUGAGAUUCUGGUGAAUCUGCGAAUUCUGCUGU [G3C C39G] reads 0.0769; that for GGCGGCCACAGCAGAAGCGUUCACGUCGCGGCCCCUGUUAGAUUCUGGUGAAUCUGCGAAUUCUGCUGU [G3C C39U], 0.0426. Consider GGCGGUCACAGCAGAAGCGUUCACGUCGCGGCCCCUGUCAGAUUCUGGUGAAUCUGCGAAUUCUGCUGU [G3C C6U], for which the self-cleavage was 0.0391. Then GGCGGGCACAGCAGAAGCGUUCACGUCGCGGCCCCUGUCAGAUUCUGGUGAAUCUGCGAAUUCUGCUGU [G3C C6G], with 0.0449. Regarding GGCGGCCACAGCAGAAGCGUUCACGUCGCGGCCCCUGUCAGAUUCUGGUGGAUCUGCGAAUUCUGCUGU [G3C A51G], the self-cleavage was 0.0762.

For GGCGGCCACAGCAGAAGCGUUCACGUCGCGGCCCCUGUCAGAUUCUGGUGCAUCUGCGAAUUCUGCUGU [G3C A51C], the self-cleavage was 0.0422. Then GGCGGCCACAGAAGAAGCGUUCACGUCGCGGCCCCUGUCAGAUUCUGGUGAAUCUGCGAAUUCUGCUGU [G3C C12A], with 0.0611; and GGCGGCCACAGUAGAAGCGUUCACGUCGCGGCCCCUGUCAGAUUCUGGUGAAUCUGCGAAUUCUGCUGU [G3C C12U], with 0.0982; and GGCGGCCACAGCAGAAGCGUUCAUGUCGCGGCCCCUGUCAGAUUCUGGUGAAUCUGCGAAUUCUGCUGU [G3C C24U], with 0.0425. Turning to GGCGGCCACAGCAGAAGCGUUCAGGUCGCGGCCCCUGUCAGAUUCUGGUGAAUCUGCGAAUUCUGCUGU [G3C C24G], the self-cleavage worked out at 0.0519.

As for GGCGGCCACAGCAGAAGCGUUCACGUCGCGGCCGCUGUCAGAUUCUGGUGAAUCUGCGAAUUCUGCUGU [G3C C34G], the self-cleavage stood at 0.783.

Regarding GGCGGCCACAGCAGAAGCGUUCACGUCGCGGCCCCUGUCAGUUUCUGGUGAAUCUGCGAAUUCUGCUGU [G3C A42U], the self-cleavage amounted to 0.0888. Then GGCGGCCACAGCAGAAGCGUUCACGUCGGGGCCCCUGUCAGAUUCUGGUGAAUCUGCGAAUUCUGCUGU [G3C C29G], with 0.0545; and GGCGGCCACAGCAGAAGCGUUCACGUCGCGGCCCCUGUCAGAUUCUGGUGAAUCUGCGACUUCUGCUGU [G3C A60C], with 0.0624. Then GGCGGCCACAGCAGAAGCGUUCACGUCGCGGCCCCUGUCAGAUUCUGGUGAAUCUGCGAGUUCUGCUGU [G3C A60G], with 0.0121; and GGCGGCCACAGCAGAAGCGUUCACGUCGCGGCCCCUGUCAGAUUCUGGUGACUCUGCGAAUUCUGCUGU [G3C A52C], with 0.0723. The result for GGCGGCCACAGCAGAAGCGUUCACGUCGCGGCCCCUGUCAGAUUCUGGUGAGUCUGCGAAUUCUGCUGU [G3C A52G] reads 0.0775. For the variant GGCGGCCACAGCAGAAGCGUUCACGUCGCGGCCCCUGUCAGAUUCUGGUGAUUCUGCGAAUUCUGCUGU [G3C A52U], the self-cleavage amounted to 0.075. The result for GGCGGCCACAGCAGAAGCGUUCACGUUGCGGCCCCUGUCAGAUUCUGGUGAAUCUGCGAAUUCUGCUGU [G3C C27U] reads 0.0443; that for GGCGGCCACAGCAGAAGCGUUCACGUGGCGGCCCCUGUCAGAUUCUGGUGAAUCUGCGAAUUCUGCUGU [G3C C27G], 0.06; that for GGCGGCCACAGCAGAAGCGUUCACGUCGCGGCCCCUGUCAGAUUCUGGUGAAUCUGCGCAUUCUGCUGU [G3C A59C], 0.0244.

Turning to GGCGGCCACAGCAGAAGCGUUCACGUCGCGGCCCCUGUCAGAUUCUGGUGAAUCUGCGGAUUCUGCUGU [G3C A59G], the self-cleavage turned out to be 0.0736.
